From patent US20180326085A1 (Merck KGaA, published 2018) come the findings set out here.

Experiment [1] deals with T1, EGFR on cells (human, UniProt P00533).
T1 construct: endogenous receptor on the cell surface; for A549 cells m5 is used; also called on NCI-H441, EBC-1, A431, MKN-45, HepG2 or T47D cells (cell line under assay)
Description: flow cytometry, EBC-1 cells (c-MET+++ EGFR++).

The target in experiment [2] is T1, EGFR on cells. Description: flow cytometry, MKN-45 cells (c-MET+++ EGFR++).
In experiment [3] the target is T2, EGFR (soluble extracellular domain) (human, UniProt P00533).
T2 construct: soluble extracellular domain; also called Human EGFR extracellular domain, R&D Systems 1095-ER
Briefly: BLI (Octet), antibody on anti-human Fc biosensors, soluble EGFR ECD as analyte.

Experiment [4] deals with T3, EGFR (epidermal growth factor receptor) on A549 cells (human, UniProt P00533 25-1210).
T3 construct: whole, on cells; Endogenous receptor of A549 cells; phosphorylation read out in cell lysates
Briefly: flow cytometry, A549 cells (c-MET+ EGFR++).

The target in experiment [5] is T1, EGFR on cells. Briefly: flow cytometry, HepG2 cells (c-MET+ EGFR+).
The target of experiment [6] is T1, EGFR on cells. Briefly: flow cytometry, A431 cells (c-MET+ EGFR+++).
Experiment [7] addresses T4, c-MET on cells (human, UniProt P08581).
T4 construct: endogenous receptor on the cell surface; for A549 cells m4 is used; also called HGFR; on NCI-H441, EBC-1, A431, MKN-45, SK-MEL2 or HepG2 cells (cell line under assay)
Briefly: flow cytometry, SK-MEL2 cells (c-MET+ EGFR-).

The target of experiment [8] is T5, c-MET and EGFR co-expressed on cells (human, UniProt P08581;P00533).
T5 construct: endogenous receptor on the cell surface; not a complex: two separate receptors on the same cell; used as target only for bispecific c-MET x EGFR molecules, whose cell staining cannot be split between the two arms; also called cells that carry both receptors: NCI-H441, EBC-1, A431, MKN-45, A549, HepG2 (cell line under assay)
Briefly: flow cytometry, EBC-1 cells (c-MET+++ EGFR++).

The target of experiment [9] is T5, c-MET and EGFR co-expressed on cells. Briefly: flow cytometry, MKN-45 cells (c-MET+++ EGFR++).
Experiment [10] addresses T6, biotinylated recombinant human c-MET ECD (HGFR extracellular domain) (human, UniProt P08581 25-932, biotinylated (sites not given)).
T6 construct: extracellular domain; also called human c-MET ECD-His
Briefly: BLI (Octet), antibody on anti-human Fc biosensors, soluble c-MET ECD as analyte.

The target of experiment [11] is T5, c-MET and EGFR co-expressed on cells. Briefly: flow cytometry, A549 cells (c-MET+ EGFR++).
Experiment [12] has the same target. Description: flow cytometry, HepG2 cells (c-MET+ EGFR+).
Experiment [13] shares this target. Description: flow cytometry, A431 cells (c-MET+ EGFR+++).
Experiment [14] shares this target. Description: flow cytometry on NCI-H441 cells (express c-MET and EGFR), FITC anti-human Fc, n=3.
Experiment [15] addresses T4, c-MET on cells. Description: flow cytometry, EBC-1 cells (c-MET+++ EGFR++).
The target of experiment [16] is T4, c-MET on cells. Description: flow cytometry, MKN-45 cells (c-MET+++ EGFR++).
For experiment [17], the target named is T7, c-MET (hepatocyte growth factor receptor) on A549 cells (human, UniProt P08581 25-1390).
T7 construct: whole, on cells; Endogenous receptor of A549 cells; phosphorylation read out in cell lysates; also called HGFR
Briefly: flow cytometry, A549 cells (c-MET+ EGFR++).

In experiment [18] the target is T4, c-MET on cells. Briefly: flow cytometry, HepG2 cells (c-MET+ EGFR+).
Experiment [19] addresses T4, c-MET on cells. Description: flow cytometry, A431 cells (c-MET+ EGFR+++).

B1: oa 425 (antibody, V domains shown)
VH: QVQLVQSGAEVKKPGASVKVSCKASGYTFTSHWMHWVRQAPGQGLEWIGEFNPSNGRTNYNEKFKSKATMTVDTSTNTAYMELSSLRSEDTAVYYCASRDYDYDGRYFDYWGQGTLVTVSS
VL: DIQMTQSPSSLSASVGDRVTITCSASSSVTYMYWYQQKPGKAPKLLIYDTSNLASGVPSRFSGSGSGTDYTFTISSLQPEDIATYYCQQWSSHIFTFGQGTKVEIKR
notes: one-armed (monovalent) anti-EGFR SEED molecule
On to B1, for which the “MFI at 100 nM” value in the experiment with EGFR on cells [1] was found to be 212; with EGFR on cells [2], 184; in experiment [4], 170; with EGFR on cells [5], 50; in the experiment with EGFR on cells [6], 1150; with c-MET on cells [7], 17. In addition, binding in [3] was characterised by a dissociation constant (Kd) of 22 nM. Further, in experiment [3], the koff is 0.012 s⁻¹. In experiment [3], this molecule gave a kon of 530000 M⁻¹ s⁻¹. Further, the binding result in the experiment with c-MET on cells [7] is recorded as “no binding (tested: 100 nM)”.

B2: oa 225-L (antibody, V domains shown)
VH: EVQLVQSGAEVKKPGASVKVSCKASGFSLTNYGVHWMRQAPGQGLEWIGVIWRGGNTDYNTPFTSRVTITSDKSTSTAYMELSSLRSEDTAVYYCARALTYYDYEFAYWGQGTLVTVSS
VL: DIQMTQSPSSLSASVGDRVTITCRASQSIGTNIHWYQQKPGKAPKLLIKYASESISGVPSRFSGSGYGTDFTLTISSLQPEDVATYYCQQNNNWPTTFGQGTKVEIK
notes: as for B1
With B2, the “MFI at 100 nM” value is 137 with EGFR on cells [1]; 83 in the experiment with EGFR on cells [2]; 91 in experiment [4]; 22 with EGFR on cells [5]; 1260 in the experiment with EGFR on cells [6]; 17 in the experiment with c-MET on cells [7]. Also, binding in experiment [3] was characterised by a dissociation constant (Kd) of 220 nM. Further, the koff in [3] was 0.14 s⁻¹. The kon in experiment [3] was found to be 610000 M⁻¹ s⁻¹. Also, the binding result with c-MET on cells [7] is “no binding (tested: 100 nM)”.

B3: B10v5x225-M (bispecific c-MET x EGFR SEEDbody) (bispecific antibody, V domains shown)
VH 1: not shown
VL 1: EPVLTQPPSVSVAPGETATIPCGGDSLGSKIVHWYQQRPGQAPLLVVYDDAARPSGIPERFSGSKSGTTATLTISSVEAGDEADYFCQVYDYHSDVEVFGGGTKLTVLGQPKAA
VH 2: EVQLVQSGAEVKKPGASVKVSCKASGFSLTNYGVHWMRQAPGQGLEWIGVIWSGGNTDYNTPFTSRVTITSDKSTSTAYMELSSLRSEDTAVYYCARALTYYDYEFAYWGQGTLVTVSS
VL 2: DIQMTQSPSSLSASVGDRVTITCRASQSIGTNIHWYQQKPGKAPKLLIKYASESISGVPSRFSGSGYGTDFTLTISSLQPEDVATYYCQQNYNWPTTFGQGTKVEIK
notes: SEEDbody format (IgG1 hinge-CH2-SEED CH3)
Regarding B3, the “MFI at 100 nM” value stood at 2280 in [8]; 1270 in [9]; 383 in experiment [11]; 793 in experiment [12]; 1290 in [13]; 457 with c-MET on cells [7]. The Kd worked out at 0.37 nM in [10] and 4.7 nM in [3]. The koff was 0.00015 s⁻¹ in experiment [10] and 0.017 s⁻¹ in experiment [3]. Besides, the kon came out at 400000 M⁻¹ s⁻¹ in experiment [10] and 3.6e+06 M⁻¹ s⁻¹ in experiment [3].

B4: CS06x225-H (bispecific c-MET x EGFR SEEDbody) (bispecific antibody, V domains shown)
VH 1: QVQLQQSGAEVKKPGSSAKVSCKASGGTFSSNAISWVRQAPGQGLEWMGGIIPIFGTAIYAQKFQGRVTITADESTSTAYMELSSLRSEDTAVYYCARDQRGYYYYYYYGMDVWGQGTTVTVSS
VL 1: QLVLTQSPSVSVAPGKTARITCGGNNIRNVGVHWYQKKPGQAPILVVYDDDDRPSGVPERFSGSNSGNTATLTISRVEAGDEADYYCQVWDSATDQRVFGGGTKLTVLGQPKAG
VH 2: EVQLVQSGAEVKKPGASVKVSCKASGFSLTNYGVHWMRQAPGQGLEWIGVIWSGGNTDYNTPFTSRVTITSDKSTSTAYMELSSLRSEDTAVYYCARALDYYDYEFAYWGQGTLVTVSS
VL 2: DIQMTQSPSSLSASVGDRVTITCRASQSIGTNIHWYQQKPGKAPKLLIKYASESISGVPSRFSGSGYGTDFTLTISSLQPEDVATYYCQQNNEWPNTFGQGTKVEIK
notes: The rest is a SEEDbody: IgG1 hinge-CH2-SEED CH3 (AG/GA)
For the molecule B4, the “MFI at 100 nM” value in experiment [8] was found to be 1560; in [9], 1550; in experiment [11] it was 292; in experiment [12], 198; in experiment [13], 1860; with c-MET on cells [7] it was 164. Further, the equilibrium dissociation constant (Kd) in experiment [10] and in [3] was 0.12 nM throughout. Also, the off-rate (koff) in experiment [10] and in experiment [3] was 0.00039 s⁻¹ each time. The on-rate (kon) in [10] and in experiment [3] was 3.3e+06 M⁻¹ s⁻¹ in each case. Besides, the “EC50 (read off the curve)” value in experiment [14] is ~0.3 nM.

B5: oa225-M (antibody, V domains shown)
VH: EVQLVQSGAEVKKPGASVKVSCKASGFSLTNYGVHWMRQAPGQGLEWIGVIWSGGNTDYNTPFTSRVTITSDKSTSTAYMELSSLRSEDTAVYYCARALTYYDYEFAYWGQGTLVTVSS
VL: DIQMTQSPSSLSASVGDRVTITCRASQSIGTNIHWYQQKPGKAPKLLIKYASESISGVPSRFSGSGYGTDFTLTISSLQPEDVATYYCQQNYNWPTTFGQGTKVEIK
notes: as for B1
Turning to B5, the “MFI at 100 nM” value in the experiment with EGFR on cells [1] is 189; in the experiment with EGFR on cells [2] it was 144; in experiment [4] it was 138; with EGFR on cells [5] it was 40; with EGFR on cells [6], 1500; with c-MET on cells [7], 19. In [3], this molecule yielded a dissociation constant (Kd) of 4.4 nM. This molecule yielded a dissociation rate constant (koff) in experiment [3] of 0.016 s⁻¹. Moreover, the on-rate (kon) in experiment [3] worked out at 3.7e+06 M⁻¹ s⁻¹. For the same molecule, the binding result with c-MET on cells [7] is “no binding (tested: 100 nM)”.

B6: CS06x225-M (bispecific antibody, V domains shown)
VL (c-MET arm): QLVLTQSPSVSVAPGKTARITCGGNNIRNVGVHWYQKKPGQAPILVVYDDDDRPSGVPERFSGSNSGNTATLTISRVEAGDEADYYCQVWDSATDQRVFGGGTKLTVLGQPKAG
VH (c-MET arm): QVQLQQSGAEVKKPGSSAKVSCKASGGTFSSNAISWVRQAPGQGLEWMGGIIPIFGTAIYAQKFQGRVTITADESTSTAYMELSSLRSEDTAVYYCARDQRGYYYYYYYGMDVWGQGTTVTVSS
VL (EGFR arm): DIQMTQSPSSLSASVGDRVTITCRASQSIGTNIHWYQQKPGKAPKLLIKYASESISGVPSRFSGSGYGTDFTLTISSLQPEDVATYYCQQNYNWPTTFGQGTKVEIK
VH (EGFR arm): EVQLVQSGAEVKKPGASVKVSCKASGFSLTNYGVHWMRQAPGQGLEWIGVIWSGGNTDYNTPFTSRVTITSDKSTSTAYMELSSLRSEDTAVYYCARALTYYDYEFAYWGQGTLVTVSS
notes: c-MET x EGFR SEED bispecific
Take B6: the “MFI at 100 nM” value in [8] worked out at 1870; in experiment [9], 1470; in [11] it was 264; in experiment [12], 330; in [13] it was 1170; with c-MET on cells [7], 236. The results for the dissociation constant (Kd) in experiment [10] and in experiment [3] were 0.21 nM and 3.9 nM, respectively. The koff in experiment [10] amounted to 0.00022 s⁻¹; in experiment [3], 0.018 s⁻¹. Also, the values for the kon in experiment [10] and in [3] were 1.1e+06 M⁻¹ s⁻¹ and 4.6e+06 M⁻¹ s⁻¹, respectively.

B7: oa B10 (antibody, V domains shown)
VH: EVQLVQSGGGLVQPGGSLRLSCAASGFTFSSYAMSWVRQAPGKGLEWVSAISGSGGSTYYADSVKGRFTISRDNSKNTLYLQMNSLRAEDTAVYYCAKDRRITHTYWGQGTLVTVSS
VL: QSVLTQPPSTSGTPGQRVTISCFGSSSNVGVNTVNWYRQLPGTAPKLLIYDNNLRPSGVPERFSGSKSGTSASLAITGLQAEDEGDYYCQSYDSSLSDVVFGGGTKLTVLG
notes: one-armed (monovalent) anti-c-MET SEED molecule; also called one-armed B10
Regarding B7, the “MFI at 100 nM” value with c-MET on cells [15] came out at 952; with c-MET on cells [16], 916; in experiment [17], 130; with c-MET on cells [18], 69; in the experiment with c-MET on cells [19] it was 103; in the experiment with c-MET on cells [7] it was 39. For the same molecule, the dissociation constant Kd in experiment [10] was found to be 12 nM. Also, in [10], the koff worked out at 0.0012 s⁻¹. Besides, the association rate constant (kon) in experiment [10] is 100000 M⁻¹ s⁻¹.
